Measurements published in the supplement of paper PMC7877785.
± gives the uncertainty stated by the source.

Assay: self-splicing fitness, log relative to wild type (ln ratio); higher = more splicing; Tetrahymena group I intron in knt gene, E. coli kanamycin selection, DiMSum; sequences stand for … in CUCUCU…GGAGGGAAAAGUUAUCAGGCAUGCACCUGGUAGCUAGUCUUUAAACCAAUAGAUUGCAUCGGUUUAAAAGGCAAGACCGUCAAAUUGCGGGAAAGGGGUCAACAGCCGUUCAGUACCAAGUCUCAGGGGAAACUUUGAGAUGGCCUUGCAAAGGGUAUGGUAAUAAGCUGACGGACAUGGUCCUAACCACGCAGCCAAGUCCUAAGUCAACAGAUCUUCUGUUGAUAUGGAUGCAGUUCACAGACUAAAUGUCGGUCGGGGAAGAUGUAUUCUUCUCAUAAGAUAUAGUCGGACCUCUCCUUAAUGGGAGCUAGCGGAUGAAGUGAUGCAACACUGGAGCCGCUGGGAACUAAUUUGUAUGCGAAAGUAUAUUGAUUAGUUUUGGAGUACUCGUGGUCG
Summary of the method: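 Library with all eight P1ex-region intron nucleotides randomised, intron inside the knt kanamycin-resistance gene on pET-22b(+), in E. coli BL21(DE3). Cells grew overnight at 37°C or 30°C on LB agar with or without 25 μg/mL kanamycin (plus 100 μg/mL carbenicillin, 50 μM IPTG, 0.2% rhamnose), in six replicate transformations. Pooled colonies were amplicon-sequenced on Illumina HiSeq 2500. DiMSum fitness is the error-weighted combination of wild-type-normalised replicate fold changes, kanamycin versus none.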

Sequence | self-splicing fitness (ln) (30 °C) | self-splicing fitness (ln) (37 °C)
GUCCAGCAAUAUUACGUCAG | -4.93 ± 0.28 | -2.16 ± 0.14
ACCCAGCAAUAUUACGCAGA | -1.02 ± 0.068 | -0.231 ± 0.072
UAUGAGCAAUAUUACGUACC | -2.28 ± 0.46 | -1.86 ± 0.43
GGUUAGCAAUAUUACGUGCG | -0.0643 ± 0.066 | 0.0143 ± 0.078
CGUGAGCAAUAUUACGUUGC | -2.69 ± 0.21 | -2.51 ± 0.32
GUCGAGCAAUAUUACGGCAU | -1.04 ± 0.067 | 0.111 ± 0.083
CUGAAGCAAUAUUACGACAU | -0.393 ± 0.012 | 0.115 ± 0.033
UCAGAGCAAUAUUACGAUCG |  | -2.39 ± 0.33
AUUAAGCAAUAUUACGGUUG | -3.08 ± 0.21 | -2.56 ± 0.24
AUCUAGCAAUAUUACGAACU | -0.13 ± 0.12 | 0.27 ± 0.12
GCGUAGCAAUAUUACGACGA | -0.712 ± 0.15 | -0.0139 ± 0.19
UCCGAGCAAUAUUACGUGAG | -2.83 ± 0.19 | -2.43 ± 0.23
UGGGAGCAAUAUUACGAAAA | -2.22 ± 0.31 | -2.16 ± 0.34
AGAGAGCAAUAUUACGGUAG | -1.46 ± 0.12 | -2.18 ± 0.19
UCUGAGCAAUAUUACGGAAC | -4.04 ± 0.39 | -3.05 ± 0.28
ACACAGCAAUAUUACGCAGG | -2.43 ± 0.093 | -1.82 ± 0.1
CGCAAGCAAUAUUACGAUGU | -1.6 ± 0.075 | -0.734 ± 0.1
CCGCAGCAAUAUUACGUCUA | -1.79 ± 0.32 | -3 ± 0.3
AGGUAGCAAUAUUACGGCCG | -0.244 ± 0.018 | 0.0571 ± 0.038

Sequence | self-splicing fitness (ln) (30 °C) | self-splicing fitness (ln) (37 °C)
UCAUAGCAAUAUUACGUUUC | -3.79 ± 0.43 | -1.72 ± 0.23
UUUUAGCAAUAUUACGCUAG | -3.18 ± 0.34 | -1.7 ± 0.35
CAAGAGCAAUAUUACGGACG | -0.541 ± 0.074 | 0.217 ± 0.093
AAAUAGCAAUAUUACGGCCU | -0.218 ± 0.095 | 0.661 ± 0.17
UUUGAGCAAUAUUACGACGA | -0.573 ± 0.15 | 0.211 ± 0.18
GUUUAGCAAUAUUACGCGUU | -1.75 ± 0.16 | -0.943 ± 0.2
GGUAAGCAAUAUUACGUAUC | -3.54 ± 0.23 | -1.39 ± 0.45
UUGCAGCAAUAUUACGCUUU | -2.64 ± 0.12 | -2.11 ± 0.15
GACCAGCAAUAUUACGGCGA | -0.195 ± 0.075 | 0.13 ± 0.11
AGACAGCAAUAUUACGGACA | -1.09 ± 0.1 | -0.425 ± 0.12
AUACAGCAAUAUUACGAUGG | -3.04 ± 0.18 | -2.35 ± 0.23
GUCAAGCAAUAUUACGGUUC | -0.665 ± 0.068 | -0.255 ± 0.1
UAGAAGCAAUAUUACGGGCC |  | -1.9 ± 0.31
UUAAAGCAAUAUUACGAAGA | -1.19 ± 0.12 | -0.63 ± 0.17
CCAAAGCAAUAUUACGUGUU | -3.49 ± 0.11 | -1.56 ± 0.09
AAUAAGCAAUAUUACGACUG | -0.872 ± 0.088 | -1.18 ± 0.11
GUAGAGCAAUAUUACGGAAA | -2.18 ± 0.28 | -2.18 ± 0.22
GAACAGCAAUAUUACGACCC | -0.0445 ± 0.095 | 0.121 ± 0.11
AUCCAGCAAUAUUACGGAGU | -3.02 ± 0.098 | -1.99 ± 0.11
